Measured values reported in US11779649B2, “Antibodies to PMEL17 and conjugates thereof” (Novartis AG, priority 2018, dated 2023).
Blank lines part the entries; values can stand above or below the molecule they belong to.

Key:
rat PMEL17 = assay: Apparent affinity by FACS titration of IgGs on HKB11-rat PMEL17 cells; format: binding; conditions: Alexa Fluor
Method: Purified IgGs were titrated on a variety of PMEL17 expressing and PMEL17 non expressing cell lines (for control) to determine EC50 values. Cells were harvested using Accutase, adjusted to ˜4×10^6 cells/ml into FACS buffer (PBS, 3% FCS and 0.02% Na-Azide) and kept on ice to avoid internalization. 15 μl of cell suspension/well were transferred into 384 well V-bottom plates (Greiner, Cat #781280) and incubated with 15 μl of IgGs at different concentrations (most commonly from 200 to 3.5×10−3 nM) for 1 hour at 4° C., gently shaking. Following incubation, cells were washed three times with FACS buffer. After each washing step, cells were centrifuged (250×g, 5 min, 4° C.) and carefully resuspended. […] After 3 washing steps, cells were resuspended in 30 μl of FACS buffer and samples were measured using the IntelliCyt HTFC device. EC50 values were calculated using the Graphpad Prism software. […]
(§1) The cross-specificity of the IgGs was evaluated in does response FACS on G-361 (human melanoma), HKB11-cyno-PMEL17, HKB11-rat PMEL17 and B16-F10 (mouse PMEL17 expressing melanoma) (Table 3). […]

PMEL17 = assay: Cross-reactivity (cross-specificity profile) of anti-PMEL17 IgGs in dose response FACS; format: binding; design: key: h/c/r/m: human/cyno/rat/mouse; h/c/r: human/cyno/rat; h/c/(m): human/cyno/mouse; h/c: human/cyno; conditions: h human, c cyno, r rat, m mouse
Method: (§2) The cross-specificity of the IgGs was evaluated in does response FACS on G-361 (human melanoma), HKB11-cyno-PMEL17, HKB11-rat PMEL17 and B16-F10 (mouse PMEL17 expressing melanoma) (Table 3). Testing on G-361 was performed using a detection antibody labelled to PE. In contrast, an Alexa-Fluor labelled detection antibody had to be used for testing the candidates on the other cell lines so as to reach detectable signals.
IgGs were classified into several epitope groups according to their cross-specificity profiles.

UACC-62 = assay: FACS titration of IgGs on UACC-62 cells; format: binding; conditions: UACC-62, PE-labelled detection antibody
Method: (§3) Purified IgGs were titrated on a variety of PMEL17 expressing and PMEL17 non expressing cell lines (for control) to determine EC50 values. Cells were harvested using Accutase, adjusted to ˜4×10^6 cells/ml into FACS buffer (PBS, 3% FCS and 0.02% Na-Azide) and kept on ice to avoid internalization. 15 μl of cell suspension/well were transferred into 384 well V-bottom plates (Greiner, Cat #781280) and incubated with 15 μl of IgGs at different concentrations (most commonly from 200 to 3.5×10−3 nM) for 1 hour at 4° C., gently shaking. Following incubation, cells were washed three times with FACS buffer. After each washing step, cells were centrifuged (250×g, 5 min, 4° C.) and carefully resuspended. 15 μl of detection antibody conjugated to PE (PE-conjugated goat anti-human IgG, F(ab′)2 fragment specific, 1:150 in FACS buffer; Jackson Immuno Research, #109-116-097) or Alexa Fluor (Alexa Fluor-conjugated goat anti-human IgG, F(ab′)2 fragment specific, 1:150 in FACS buffer; Jackson Immuno Research, #109-606-097) were added and samples were incubated for 45 minutes to 1 hour on ice in the dark, gently shaking. After 3 washing steps, cells were resuspended in 30 μl of FACS buffer and samples were measured using the IntelliCyt HTFC device. EC50 values were calculated using the Graphpad Prism software. G-361 melanoma cell line expresses human PMEL17 at a lower level compared to the HKB11-human PMEL17 overexpressing cell line, and therefore allows a more precise ranking of the clones depending on their apparent affinity on cells.

human PMEL17 = target: T1, human PMEL17 (Homo sapiens, UniProt P40967); assay: Apparent affinity by FACS titration of IgGs on G-361 melanoma cell line; format: binding; conditions: G-361, PE-labelled detection antibody; read-out: FACS EC50 (nM) G-361 (PE)
T1 construct: G-361 melanoma cell line expresses human PMEL17 at a lower level compared to the HKB11-human PMEL17 overexpressing cell line; endogenous in cells; host or cells: G-361 (human melanoma)
T1 sequence (P40967 25-661): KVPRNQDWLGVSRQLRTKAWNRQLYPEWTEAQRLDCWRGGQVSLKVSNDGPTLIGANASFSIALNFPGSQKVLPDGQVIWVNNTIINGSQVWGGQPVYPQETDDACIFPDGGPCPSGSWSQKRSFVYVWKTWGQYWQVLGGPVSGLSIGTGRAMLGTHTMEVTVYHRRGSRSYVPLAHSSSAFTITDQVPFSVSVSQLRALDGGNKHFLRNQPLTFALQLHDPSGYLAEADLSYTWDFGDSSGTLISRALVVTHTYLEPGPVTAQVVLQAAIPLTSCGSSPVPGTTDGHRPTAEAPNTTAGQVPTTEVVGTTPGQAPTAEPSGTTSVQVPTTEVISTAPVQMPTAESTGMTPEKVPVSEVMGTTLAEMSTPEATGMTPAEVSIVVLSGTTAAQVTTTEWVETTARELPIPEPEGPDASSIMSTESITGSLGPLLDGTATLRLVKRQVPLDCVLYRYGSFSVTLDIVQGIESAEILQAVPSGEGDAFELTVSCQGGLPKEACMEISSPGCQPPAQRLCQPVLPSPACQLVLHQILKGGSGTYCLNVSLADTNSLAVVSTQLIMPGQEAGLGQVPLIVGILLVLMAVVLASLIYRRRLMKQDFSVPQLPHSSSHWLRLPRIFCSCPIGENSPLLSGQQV
Method: as §3, §1

mouse PMEL17 = target: T2, mouse PMEL17 (Mus musculus, UniProt Q60696); assay: Apparent affinity by FACS titration of IgGs on B16-F10 melanoma cells; format: binding; conditions: Alexa Fluor
T2 construct: B16-F10 (mouse PMEL17 expressing melanoma); endogenous in cells; host or cells: B16-F10 (mouse melanoma)
T2 sequence (Q60696 24-626): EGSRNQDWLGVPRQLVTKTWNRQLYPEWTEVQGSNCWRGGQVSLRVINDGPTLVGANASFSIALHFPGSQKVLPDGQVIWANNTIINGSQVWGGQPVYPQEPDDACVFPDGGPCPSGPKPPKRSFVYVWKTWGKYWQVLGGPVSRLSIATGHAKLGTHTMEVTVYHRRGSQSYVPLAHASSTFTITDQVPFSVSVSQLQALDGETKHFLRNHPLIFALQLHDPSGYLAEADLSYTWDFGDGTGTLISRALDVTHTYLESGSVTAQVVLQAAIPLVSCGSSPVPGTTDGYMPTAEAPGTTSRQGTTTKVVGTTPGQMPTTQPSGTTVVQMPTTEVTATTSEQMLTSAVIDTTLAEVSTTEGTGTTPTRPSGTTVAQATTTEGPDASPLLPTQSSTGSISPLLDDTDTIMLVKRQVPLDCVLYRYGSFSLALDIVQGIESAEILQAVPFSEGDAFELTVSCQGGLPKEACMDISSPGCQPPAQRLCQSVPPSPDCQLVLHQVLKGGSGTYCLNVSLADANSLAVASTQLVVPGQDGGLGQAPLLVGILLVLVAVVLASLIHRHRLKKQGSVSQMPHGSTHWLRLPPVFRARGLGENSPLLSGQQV
Method: as §3, §2

human PMEL = target: T3, human PMEL (Homo sapiens, UniProt P40967); assay: SPR epitope binning (competitive binding assay, Biacore T200); conditions: FIG. 20B-20C
T3 sequence (P40967 25-661): T1 sequence (P40967 25-661)
From the text: SPR was used to assess epitope binning for anti-PMEL antibodies on a T200 Biacore instrument (catalog #28975001, GE Healthcare Life Sciences).
Surface Plasmon Resonance (SPR) is a technique to measure bimolecular interactions in real-time in a label free environment. Molecules are immobilized on a sensor surface over which a sample solution flows. The interaction between the immobilized molecule and the flowing sample causes a refractive index change. The refractive index change is an altering of the angle at which reduced intensity polarized light is reflected from the supporting glass plane. This angle change is caused by binding or dissociation of molecules from the sensor surface and is proportional to the mass of bound material and is recorded by the instrument in a sensorgram. […] From the association and dissociation event responses, an association rate (ka), a dissociation rate (kd) and an overall affinity (KD) are determined. For epitope binning, KDs are not determined.
In the first step, G1 LC 3J and 17A9 antibodies were directly immobilized onto a CM5 chip surface via Amine Coupling to achieve approximately 2000RU respectively on Fc2 and Fc3. […] The immobilized antibodies on Fc2 and Fc3 are the base antibodies in the experiment […]
The data was analyzed using the Biacore T200 Evaluation Software version 3.0.

- EC50 (rat PMEL17): > 100 nM
- EC50 (human PMEL17): 2.8 nM
- EC50 (mouse PMEL17): > 100 nM
B1: Y010417: anti-PMEL17 antibody (IgG) (antibody, V domains shown)
VH: EVQLVQSGAEVKKPGESLKISCKGSGYSFTSYWIGWVRQMPGKGLEWMGIIYPGDSDTRYSPSFQGQVTISADKSISTAYLQWSSLKASDTAMYYCARGSSAASGLSGDLWGQGTLVTVSS
VL: DIQMTQSPSSLSASVGDRVTITCRASQSISSYLNWYQQKPGKAPKLLIYAASSLQSGVPSRFSGSGSGTDFTLTISSLQPEDFATYYCQQDYYSPFTFGQGTKVEIK
- Cross spe profile (based on C14 detection ab) (PMEL17): h/c
- UACC-62 (PE) (UACC-62): Negative

- epitope binning (human PMEL): bind to different epitopes
B2: G1 LC 3J: anti-PMEL antibody G1 with 3J light chain (antibody, V domains shown)
VH: QVQLVQSGAEVKKPGSSVKVSCKASGGTFSDYAITWVRQAPGQGLEWMGGIIPIFGTANYAQKFQGRVTITADESTSTAYMELSSLRSEDTAVYYCAREGGLLTDISYSRYWFAYWGQGTLVTVSS
VL: SYELTQPLSVSVALGQTARITCSGDALRDKFVYWYQQKPGQAPVLVIYDDNNRPSGIPERFSGSNSGNTATLTISRAQAGDEADYYCQSWDHSYSLVVFGGGTKLTVL
